From patent publication US20150175693A1 (UNIVERSIT TSKLINIKUM REGENSBURG, published 2015)

Target: T1, IL-3 receptors on human basophils, pDC, monocytes and B cells (PBMC) (human, UniProt P26951 19-378; P32927 17-897)
T1 construct: whole, on cells; Natural receptor on primary human blood cells; the cells were sorted by CD123 and HLA-DR staining; also called CD123
Assay: flow cytometry, biotinylated hIL-3 on human PBMC, avidin-FITC
Method: Binding of IL-3 to human peripheral blood mononuclear cells (PBMC) was analysed using commerically available biotinylated IL-3. For the assay, biotinylated IL-3 was incubated with PBMC and binding detected via Avidin-Fluorescein (biotinylated hIL-3 and other reagents obtained from R&D Systems, Inc., Cat. No. NF300).
10 μl of the isolated and incubated PBMC cell preparation (10 Mio. cells/ml) were added to each of the preincubated IL-3/antibody or negative control samples and further incubated for 1 hour at 4° C. For the detection of IL-3 bound to PBMC, 10 μl avidin-FITC reagent together with anti-human CD123 PE-Cy5 (1:10) and anti-HLA-DR II APC (1:50) were added and the samples incubated for a further 30 min at 4° C. Cells were washed twice with 2 ml 1×RDF1 buffer and resuspended in 200 μl of this buffer per sample and FACS analysis performed. Basophils were identified by high expression of CD123 and absence of HLA-DR. Plasmacytoid dendritic cells (pDC) were identified by high expression of CD123 and HLA-DR. Monocytes and B cells were identified by light scatter properties and expression of HLA-DR.

T1 sequence (P26951 19-378, chain 1 of 2): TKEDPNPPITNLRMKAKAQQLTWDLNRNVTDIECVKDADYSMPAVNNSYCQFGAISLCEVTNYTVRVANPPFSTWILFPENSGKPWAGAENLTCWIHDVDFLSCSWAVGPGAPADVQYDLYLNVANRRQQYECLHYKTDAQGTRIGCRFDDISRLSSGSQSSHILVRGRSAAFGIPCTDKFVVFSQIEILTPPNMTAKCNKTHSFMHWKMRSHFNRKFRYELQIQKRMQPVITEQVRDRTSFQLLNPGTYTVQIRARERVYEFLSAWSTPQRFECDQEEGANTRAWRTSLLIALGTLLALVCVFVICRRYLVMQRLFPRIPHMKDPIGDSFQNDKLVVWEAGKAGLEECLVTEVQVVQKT
T1 sequence (P32927 17-897, chain 2 of 2): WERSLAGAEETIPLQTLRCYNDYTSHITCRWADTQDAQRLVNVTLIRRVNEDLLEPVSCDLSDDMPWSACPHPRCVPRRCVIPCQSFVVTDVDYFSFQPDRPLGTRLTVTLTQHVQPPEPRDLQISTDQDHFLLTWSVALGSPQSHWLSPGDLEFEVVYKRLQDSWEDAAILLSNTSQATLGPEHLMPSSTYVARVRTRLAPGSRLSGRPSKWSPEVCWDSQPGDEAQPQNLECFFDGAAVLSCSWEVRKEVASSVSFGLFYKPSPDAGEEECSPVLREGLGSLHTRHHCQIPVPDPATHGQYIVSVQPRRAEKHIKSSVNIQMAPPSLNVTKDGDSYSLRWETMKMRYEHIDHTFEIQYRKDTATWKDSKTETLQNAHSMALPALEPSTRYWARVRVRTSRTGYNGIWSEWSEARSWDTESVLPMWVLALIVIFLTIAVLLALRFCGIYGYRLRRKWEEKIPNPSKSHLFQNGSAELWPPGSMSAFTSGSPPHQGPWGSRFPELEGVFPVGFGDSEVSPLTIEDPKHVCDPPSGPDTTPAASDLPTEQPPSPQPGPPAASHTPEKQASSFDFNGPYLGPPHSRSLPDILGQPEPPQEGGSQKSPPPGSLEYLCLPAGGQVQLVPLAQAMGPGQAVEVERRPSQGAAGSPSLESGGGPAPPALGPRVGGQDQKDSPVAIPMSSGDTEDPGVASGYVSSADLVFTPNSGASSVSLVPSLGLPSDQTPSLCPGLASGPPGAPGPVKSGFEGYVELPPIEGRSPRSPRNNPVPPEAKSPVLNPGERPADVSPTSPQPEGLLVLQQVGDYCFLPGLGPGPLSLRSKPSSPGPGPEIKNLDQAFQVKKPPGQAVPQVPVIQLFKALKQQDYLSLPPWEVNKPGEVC

B1: biotinylated hIL-3 (R&D Systems, Cat. No. NF300) (ligand)
chain: APMTQTTPLKTSWVNCSNMIDEIITHLKQPPLPLLDFNNLNGEDQDILMENNLRRPNLEAFNRAVKSLQNASAIESILKNLLPCLPLATAAPTRHPIHIKDGDWNEFRRKLTFYLKTLENAQAQQTTLSLAIF
modifications: biotinylated (sites not given)
notes: Bought reagent; also called biotinylated IL-3
  binding result: binds
